According to the RNAGym collection of RNA variant scans (doi:10.7554/elife.80360):

B1: HDV Ribozyme (parent)
chain: GGCCGGCAUGGUCCCAGCCUCCUCGCUGGCGCCGGCUGGGCAACAUUCCGAGGGGACCGUCCCCUCGGUAAUGGCGAAUGGGACCCA

Variants of: B1
Test: self-cleavage, relative activity (ratio to wild type); higher = more cleavage; co-transcriptional

Which self-cleavage does the source give for GGCCGGAAUGGUACCAGCCUCCUCGCUGGCGCCGGCUGGGCAACAUUCCGAGGGGACCGUCCCCUCGGUAAUGGCGAAUGGGACCCA here?
The self-cleavage was 0.185.

Which self-cleavage does the source give for GGCCGGCAUGGUCCCAGCCUCCUCGCUGGCGCCGGCUGGGCAACAUUCCGAGGGGACCGUCCCCUUGGUAAUUGCGAAUGGGACCCA here?
The self-cleavage was 0.284.

With GGCCGGCAUGGUCCCAGCCUCCUCGCUGGCGCCGGCUGGGCAUCAUUCCGAGGGGACCGUCCCCUCGGUAAUGGCGAAUGGGAGCCA as the variant, how does the self-cleavage read?
The self-cleavage was 0.146.

With GGCCGGCAUGGUCCCAGCCUCCUCGCUGGCGCCGGCUGGGCAACAUUCCGAGGGGACCGUCACCUCGGUAAAGGCGAAUGGGACCCA as the variant, how does the self-cleavage read?
The self-cleavage was 0.54.

Which self-cleavage does the source give for GGCCGGCAUGGUCCCAGCCUCCUCGCUGCCGCCGGCUGGGCAACAUUCCGAGGGGACCGUUCCCUCGGUAAUGGCGAAUGGGACCCA here?
Its self-cleavage is 0.119.

With GGCCGGCAUGGUCCCAGCCUCCUCGCUGGCGCCGGCUGGACAACAUUCCUAGGGGACCGUCCCCUCGGUAAUGGCGAAUGGGACCCA as the variant, how does the self-cleavage read?
Its self-cleavage is 0.842.

Which self-cleavage does the source give for GGCCGGCAUGGUCCCAGCCUCCUCGCUGGCGCCGGCUGGGCAACACUCCGAGGGGACCGUCCCCGCGGUAAUGGCGAAUGGGACCCA here?
The self-cleavage was 1.09.

With GGCCGGCAUGGUUCCAGCCUCCUCGCUGGCGCCGGCUGGGCAACAUUCCGAGGGGACCGUCCCCUUGGUAAUGGCGAAUGGGACCCA as the variant, how does the self-cleavage read?
Its self-cleavage is 0.698.

For GGCCGGCAUGGUCCCAGCCUCCUCGCUGGCGCCGGCGGGGCAACAUUCCGAGGGGACCGUCCCCUCGGUAAUGGCGAAUGAGACCCA, which self-cleavage is on record?
Its self-cleavage is 0.

Which self-cleavage does the source give for GGCCGGCAUGGUCCCAGCCUCCUCGCUGGCGCCGGCUGGGCAACAUUCCGAGGGGACCGUCCCCUCGGUAAUGGCGAACGGGCCCCA here?
Its self-cleavage is 0.374.

With GGCCGGCAUGGUCCCAGCCGCCUCGCUGGCGCCGGCUGGACAACAUUCCGAGGGGACCGUCCCCUCGGUAAUGGCGAAUGGGACCCA as the variant, how does the self-cleavage read?
Its self-cleavage is 0.374.

For GGCCGGCAUGGUCCCAGCCUCCUCGCUGGCGCCGGCUGGGCAACAUUCUGAGGGGACCGUCCCCUCGGUAAUGGUGAAUGGGACCCA, which self-cleavage is on record?
The self-cleavage was 0.13.

With GGCCGGCAUGGUCCCAGCCUCCUCGCUGGCGCCGGCUGGGCAACAUUCCGAGGGAACCGUCCCCUCGGUAAUGGCGAAUGGGACCCA as the variant, how does the self-cleavage read?
Its self-cleavage is 0.996.

With GGCCGGGAUGGUCCCAGCCUCCUCGCUGGCGCCGGCUGGGCAGCAUUCCGAGGGGACCGUCCCCUCGGUAAUGGCGAAUGGGACCCA as the variant, how does the self-cleavage read?
The self-cleavage was 0.

Which self-cleavage does the source give for GGCCGGUAUGGUCCCAGCCUCCUAGCUGGCGCCGGCUGGGCAACAUUCCGAGGGGACCGUCCCCUCGGUAAUGGCGAAUGGGACCCA here?
The self-cleavage was 0.256.

With GGCCGGCAUGGUCCCAGCCUCCUGGCUGGCGCCGGCUGGGCAACAUUCCGAGGGGACCGUCCCCUCGGUAAUGGCGAAUGGGACCCG as the variant, how does the self-cleavage read?
Its self-cleavage is 0.137.

Which self-cleavage does the source give for GGCCGGCAUGGUCCCAGCCUCCUCGCUGGCGCCGGCUGGGCAACAUUGCGAGGGGACCGUCCCCUCGGUAAUGGCUAAUGGGACCCA here?
Its self-cleavage is 0.997.

Which self-cleavage does the source give for GGCCGGCAUGGUGCCAGCCUCCUCGCUGGCGCCGGCUGGGCAACAUUCCGAGGGGACCGUCCCCUCGGUAAUGGCGCAUGGGACCCA here?
The self-cleavage was 0.0615.

For GGCCGGCAUGGUCCCAGACUCCUCGCUGGCGCCGGCUGGGCAACAUUCCGAGGGGACCGUCCCCUCGGUAAUGGCGAAUUGGACCCA, which self-cleavage is on record?
Its self-cleavage is 0.051.

For GGCCGGCAUGGUCCCAGCCUCCUCGCUGGCGCCGGCUGGGCAACAUUCCGAUGGGACCGUCCCCUCGGUAAUGCCGAAUGGGACCCA, which self-cleavage is on record?
Its self-cleavage is 0.363.

Which self-cleavage does the source give for GGCCGGCAUGGUCCCAGCCACCUCGCUGGCGCCGGCUGGGCAACAUUCCGAGGGGACCGUCCCCUCGGUCAUGGCGAAUGGGACCCA here?
Its self-cleavage is 0.104.

With GGCCGGCAUGGUCCCAGCCUCCUGGCUGGCGCCGGCUGGGCAACAUUCCGAGGGGACCAUCCCCUCGGUAAUGGCGAAUGGGACCCA as the variant, how does the self-cleavage read?
The self-cleavage was 0.0955.

For GGCCGGCAUGGUCCCAGCCUCCUCGCUGGCGCCGGCUGGGCAACAUUCCGAGGAGACCGUCCCCACGGUAAUGGCGAAUGGGACCCA, which self-cleavage is on record?
Its self-cleavage is 0.267.

For GGCCGGCAUGGUCCCAGACUCCUCGCUGGCGCCGGCUGGGCAACAUUCCGAGGGGACCGUCCCCUCGGUAAUGGCGAAUGGGACCCC, which self-cleavage is on record?
Its self-cleavage is 0.134.

With GGCCGGCAUGGUCCCAGCCUCAUCGCUGGCGCCGGCUGGGCAACAUUCCGAGGGGACCGUCCCCUCGGUAAUGGCGAAUGGGGCCCA as the variant, how does the self-cleavage read?
The self-cleavage was 0.14.

With GGCCGGCAUGGUCCUAGCCUCCUCGCUGGCGCCGGCUGGGCAACAUUCCGAGGGGACCGUCCCCUCGGUAAUGGCCAAUGGGACCCA as the variant, how does the self-cleavage read?
The self-cleavage was 1.03.

With GGCCGGGAUGGUCCCAGCCUCCUCGCUGGCGCCGGCUGGGCAACAUUCCGAGGGGACCGGCCCCUCGGUAAUGGCGAAUGGGACCCA as the variant, how does the self-cleavage read?
Its self-cleavage is 0.256.

Which self-cleavage does the source give for GGCCGGCAUGGUCCCAGCCUCCUCGCUGGCGCCGGCUGGGCAACAUGCCGAGGGGACCGUCCCCUCGGUAAUGACGAAUGGGACCCA here?
Its self-cleavage is 0.435.

With GGCCGGCAUGGUCCCAGCCUCCUCGCAGGCGCCGGCUGGGCAACAUUCCGAGGGGACCGUCCCCUCGGUAAUGGCGAUUGGGACCCA as the variant, how does the self-cleavage read?
The self-cleavage was 0.256.

For GGCCGGCAUGGUCCCAGCCUCCUCGCUGGCGCCGGCUGGGCACCAUUCCGAGGGGACCGUCCCCUCGGUAAUGGCGAAUGGGACACA, which self-cleavage is on record?
The self-cleavage was 0.361.

Which self-cleavage does the source give for GGCCGGCAUGGUCCCAGCCUCCUCGCUGGCGCCGGCUGGGCAACAUCCCGAGGGGACCGUCCCCUCUGUAAUGGCGAAUGGGACCCA here?
Its self-cleavage is 0.892.

For GGGCGGCAUGGUCCCAGCCUCCUCGCUGGCGCCGGCUGGGCAACAUUCCGAGGGGACCGUCCCCACGGUAAUGGCGAAUGGGACCCA, which self-cleavage is on record?
The self-cleavage was 0.648.
